Data set [1] has as its system C179Δtail (Homo sapiens). The data set is described as follows: EMSA. Particulars: 0.66 nM RNA; yeast tRNA 0.1 mg/ml; 10 mM Tris-HCl pH 7, 30 mM NaCl, 2.5 mM MgCl2, 0.1% IGEPAL CA-630, 0.1 mg/ml yeast tRNA, 1.5% RNaseOUT, 0.2 mM EDTA, 0.2 mM DTT, 30 C 20 min; 0.8% agarose/TBE …. (In general: In EMSA bound probe runs differently from free probe, usually more slowly.)
Data set [2] has as its system C179DDD (Homo sapiens). Briefly: EMSA. The following applies: 0.66 nM RNA; yeast tRNA 0.1 mg/ml; 10 mM Tris-HCl pH 7, 30 mM NaCl, 2.5 mM MgCl2, 0.1% IGEPAL CA-630, 0.1 mg/ml yeast tRNA, 1.5% RNaseOUT, 0.2 mM EDTA, 0.2 mM DTT, 30 C 20 min; 0.8% agarose/TBE ….

Consider Xist repeat E RNA probe, for which the binding signal (% probe shifted at 5 µM protein) in data set [1] came to 2; in data set [2], 54.

For the origin of these results see article PMC12862363, “AURKB-driven dissolution of CIZ1–RNA assemblies from the inactive X chromosome in mitosis” (Nucleic Acids Research, 2026).
